The values below come from patent US10866245B2, “Methods for dye selection for protein melt temperature determinations” (LIFE TECHNOLOGIES CORPORATION, priority 2013, dated 2020).

The target in one series is T1, T4 DNA ligase (Enterobacteria phage T4, UniProt P00970).
T1 sequence (P00970 1-487): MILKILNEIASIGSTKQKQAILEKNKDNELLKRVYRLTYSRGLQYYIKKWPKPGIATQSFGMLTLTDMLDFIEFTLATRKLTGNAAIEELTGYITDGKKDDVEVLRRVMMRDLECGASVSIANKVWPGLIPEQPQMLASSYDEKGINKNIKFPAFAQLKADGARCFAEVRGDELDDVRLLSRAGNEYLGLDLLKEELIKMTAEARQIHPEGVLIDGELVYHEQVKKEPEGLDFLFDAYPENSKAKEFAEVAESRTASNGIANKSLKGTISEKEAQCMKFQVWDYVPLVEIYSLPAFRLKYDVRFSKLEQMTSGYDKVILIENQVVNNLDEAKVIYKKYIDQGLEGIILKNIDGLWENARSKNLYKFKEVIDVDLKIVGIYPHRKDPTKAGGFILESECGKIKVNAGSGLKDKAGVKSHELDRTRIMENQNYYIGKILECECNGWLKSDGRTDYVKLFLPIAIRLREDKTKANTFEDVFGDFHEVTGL
Briefly: Protein Thermal Shift assay of T4 DNA ligase with and without ligand ATP (SYPRO Orange). As to conditions: derivative curve FIG. 2B. It counts as binding. The protocol: (§1) Applied Biosystems® Real-time PCR Systems instruments, as described above, are used to plot the fluorescence data throughout the thermal melt, generating a fluorescence profile specific to the protein of interest within the test buffer environment or in the presence of a test ligand. A MATLAB based TmTool™ which utilizes the Boltzmann equation to calculate the Tm of the protein from the fluorescence melt plot is used to process the raw data recorded with the instrument.
T4 DNA ligase is prepared in phosphate buffered saline (PBS; 137 mM NaCl, 10 mM Phosphate, 2.7 mM KCl, pH 7.4) and 5% glycerol at a concentration of 3 mg/ml of protein. T4 DNA ligase samples are prepared using SYPRO® Orange with and without ligand (ATP at 10 mM concentration). SYPRO® Orange dye solution is prepared as a 1000× stock from a 5000× stock solution in DMSO, then diluted to a 10× stock solution using 100 mM Potassium phosphate buffer. The SYPRO® Orange-protein reaction mixture is prepared by using 1 μl of the protein solution, 2 μl of the 10× dye solution, and 17 μl of the PTS buffer. Quadruplicate samples for each protein-dye mixture are run on a ViiA™ 7 qPCR instrument (Life Technologies, Inc.) and analysis using Protein Thermal Shift™ software (Life Technologies Inc.). […]

Series [1] is described as follows: Protein Thermal Shift of RecA with dye formulation 7 versus SYPRO Orange alone. In kind it is physicochemical. The procedure: (§2) The assays are run on a ViiA™7 qPCR instrument (Life Technologies, Inc.) and analyzed using Protein Thermal Shift™ software (Life Technologies Inc.). The run time conditions are: a temperature hold at 20° C. for one minute followed by a thermal ramp of 0.05° C. with continuous data collection to 95° C., followed by a 1 minute hold at the final temperature.
PTS is performed on RecA, using conditions as is discussed in Example 6. 1.4 μl of each of the 100× dye formulations is added according to Table 9. PTS reproducibility is improved with dye formulation 7 (SYPRO® Orange, SYPRO® Red and SYPRO® Tangerine) (FIGS. 13A and 13B) using an X5-M5 filter relative to SYPRO® Orange alone using an X4-M4 filter. In FIG. 13A, using the mixture of dyes (formulation 7), the two melt curves shown are for RecA in E3 and C3 buffer, respectively.

The nature of series [2]: Protein Thermal Shift buffer and salt screen of RecA (SYPRO Orange, Boltzmann fit). In kind it is physicochemical.
Description: as §1
FIGS. 3A through 3C illustrate the method of calculating Tm from a typical PTS. The MATLAB based TmTool™ calculates the Tm of the protein from the shape of the fluorescence plot in FIG. 3a. The thermo-stability of RecA in different buffer and salt conditions is compared and the region of interest is fitted to the Boltzmann equation. RecA is prepared in phosphate buffered saline (PBS; 137 mM NaCl, 10 mM Phosphate, 2.7 mM KCl, pH 7.4) and 5% glycerol at a concentration of 3 mg/ml of protein. SYPRO® Orange dye solution is prepared as a 1000× stock from a 5000× stock solution in DMSO, then diluted to a 10× stock solution with PTS buffer.
as §2, with “SYPRO® Orange-protein Protein Thermal Shift Assay reaction mixture is prepared by using 1 μl of the protein solution, 2 μl of the 10× dye solution, and 17 μl of each of experimental buffer solutions A1-A4, B1-B4, C1-C4, and D1-D4. Samples for each protein-dye mixture” for “assays”, “ViiA™ 7” for “ViiA™7”, “analysis” for “analyzed”
The Applied Biosystems' TmTool™ calculator provides the protein Tm calculated via Boltzmann curve-fitting. […] Thus, the methods can be used to identify salt and pH concentrations best suited for stability of a protein as well as conditions for protein storage, crystallography, etc. The Boltzmann equation used is: […]

The target of another series is T2, Human Decorin Protein (Homo sapiens, UniProt P07585).
T2 construct: purchased R&D Systems 143-DE
The series is described as follows: Protein Thermal Shift of human Decorin, anti-Decorin antibody and their mixture. It counts as binding. As to conditions: isolated protein or isolated antibody. The procedure: T4 DNA ligase is prepared in phosphate buffered saline (PBS; 137 mM NaCl, 10 mM Phosphate, 2.7 mM KCl, pH 7.4) and 5% glycerol at a concentration of 3 mg/ml of protein. T4 DNA ligase samples are prepared using SYPRO® Orange with and without ligand (ATP at 10 mM concentration). SYPRO® Orange dye solution is prepared as a 1000× stock from a 5000× stock solution in DMSO, then diluted to a 10× stock solution using 100 mM Potassium phosphate buffer. The SYPRO® Orange-protein reaction mixture is prepared by using 1 μl of the protein solution, 2 μl of the 10× dye solution, and 17 μl of the PTS buffer. Quadruplicate samples for each protein-dye mixture are run on a ViiA™ 7 qPCR instrument (Life Technologies, Inc.) and analysis using Protein Thermal Shift™ software (Life Technologies Inc.). The run time conditions are: a temperature hold at 20° C. for one minute followed by a thermal ramp of 0.05° C. with continuous data collection to 95° C., followed by a 1 minute hold at the final temperature.
An assay was performed to identify whether PTS can be used to analyze binding of an antibody to its ligand. The method is performed using buffer and reaction conditions as described in EXAMPLE 1.

As for `Nc1ncnc2c1ncn2[C@@H]1O[C@H](COP(=O)(O)OP(=O)(O)OP(=O)(O)O)[C@@H](O)[C@H]1O` [ATP, reference compound], the “Tm of complexed T4 DNA Ligase” value at T4 DNA ligase (with ligand ATP at 10 mM) is “about 48 °C”.

Take RecA: RecA DNA repair protein: the Tm was 53.3 °C in series [1] (Buffer C3, SYPRO Orange alone, X4-M4 filter); 49.5 °C in series [1] (Buffer C3, dye formulation 7, X5-M5 filter); 48.1 °C in series [1] (Buffer E3, SYPRO Orange alone, X4-M4 filter); 45.7 °C in series [1] (Buffer E3, dye formulation 7, X5-M5 filter). Moreover, the “Tm in ° C.” value in series [2] (Buffer A1: 100 mM Sodium Citrate, pH 5.5, 0 mM NaCl) came out at 42.2 °C; in series [2] (Buffer A2: 100 mM Sodium Citrate, pH 5.5, 50 mM NaCl), 41.7 °C; in series [2] (Buffer A3: 100 mM Sodium Citrate, pH 5.5, 100 mM NaCl), 42.1 °C; in series [2] (Buffer A4: 100 mM Sodium Citrate, pH 5.5, 150 mM NaCl) it was 41.6 °C; in series [2] (Buffer B1: 100 mM Potassium Phosphate, pH 6.0, 0 mM NaCl), 41.8 °C; in series [2] (Buffer B2: 100 mM Potassium Phosphate, pH 6.0, 50 mM NaCl), 41.2 °C. The “Tm in ° C.” value in series [2] (Buffer B3: 100 mM Potassium Phosphate, pH 6.0, 100 mM NaCl) was determined as 41.2 °C; in series [2] (Buffer B4: 100 mM Potassium Phosphate, pH 6.0, 150 mM NaCl), 41.1 °C; in series [2] (Buffer C1: 100 mM Potassium Phosphate, pH 7.0, 0 mM NaCl), 46.8 °C; in series [2] (Buffer C2: 100 mM Potassium Phosphate, pH 7.0, 50 mM NaCl), 46.6 °C; in series [2] (Buffer C3: 100 mM Potassium Phosphate, pH 7.0, 100 mM NaCl), 46 °C; in series [2] (Buffer C4: 100 mM Potassium Phosphate, pH 7.0, 150 mM NaCl) it was 45.7 °C.

B1: T4 DNA Ligase: T4 DNA ligase enzyme prepared in PBS and 5% glycerol at 3 mg/ml (protein, UniProt P00970 1-487, looked up)
DNA ligase: MILKILNEIASIGSTKQKQAILEKNKDNELLKRVYRLTYSRGLQYYIKKWPKPGIATQSFGMLTLTDMLDFIEFTLATRKLTGNAAIEELTGYITDGKKDDVEVLRRVMMRDLECGASVSIANKVWPGLIPEQPQMLASSYDEKGINKNIKFPAFAQLKADGARCFAEVRGDELDDVRLLSRAGNEYLGLDLLKEELIKMTAEARQIHPEGVLIDGELVYHEQVKKEPEGLDFLFDAYPENSKAKEFAEVAESRTASNGIANKSLKGTISEKEAQCMKFQVWDYVPLVEIYSLPAFRLKYDVRFSKLEQMTSGYDKVILIENQVVNNLDEAKVIYKKYIDQGLEGIILKNIDGLWENARSKNLYKFKEVIDVDLKIVGIYPHRKDPTKAGGFILESECGKIKVNAGSGLKDKAGVKSHELDRTRIMENQNYYIGKILECECNGWLKSDGRTDYVKLFLPIAIRLREDKTKANTFEDVFGDFHEVTGL
On to B1, for which the “Tm of uncomplexed T4 DNA Ligase” value with T4 DNA ligase (no ligand) was “about 42 °C”.

B2: Human Decorin: Human Decorin Protein, P/N 143-DE (R&D Systems) (protein, UniProt P07585 31-359, looked up)
Decorin: DEASGIGPEVPDDRDFEPSLGPVCPFRCQCHLRVVQCSDLGLDKVPKDLPPDTTLLDLQNNKITEIKDGDFKNLKNLHALILVNNKISKVSPGAFTPLVKLERLYLSKNQLKELPEKMPKTLQELRAHENEITKVRKVTFNGLNQMIVIELGTNPLKSSGIENGAFQGMKKLSYIRIADTNITSIPQGLPPSLTELHLDGNKISRVDAASLKGLNNLAKLGLSFNSISAVDNGSLANTPHLRELHLDNNKLTRVPGGLAEHKYIQVVYLHNNNISVVGSSDFCPPGHNTKKASYSGVSLFSNPVQYWEIQPSTFRCVYVRSAIQLGNYK
For the molecule B2, the Tm with Human Decorin Protein was 47.7 °C.

One may read the Tm as the temperature at which the thermal transition is half complete.
